Tested on: MS2 coat protein
Assay: apparent KD of MS2 coat protein; designed switch direction (-1 OFF switch, 1 ON switch): 1; higher = weaker reporter binding
Method in brief: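 On Illumina chips, designed RNA switches with common flanks were made by stalled E. coli RNA polymerase. Titrations with SNAP-549-labelled MS2 coat protein, doubling from 0.7 or 1.5 nM to 3 µM, were done with no input, with 200 uM small-molecule ligand, or with an oligonucleotide input. Apparent KD is the median per design over clusters, from curve fits of normalised cluster fluorescence.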

[1] = Eterna round: R95, input ligand: FMN 200 uM
[2] = Eterna round: R95, input ligand: microRNA oligo, concentration not stated
[3] = Eterna round: R95, input ligand: none
[4] = input ligand: microRNA oligo, concentration not stated

Sequence	apparent KD of MS2 coat protein [1] [nM]	apparent KD of MS2 coat protein [2] [nM]	apparent KD of MS2 coat protein [3] [nM]	apparent KD of MS2 coat protein (input ligand: FMN 200 uM) [nM]	apparent KD of MS2 coat protein [4] [nM]	apparent KD of MS2 coat protein (input ligand: none) [nM]
GUGUGUUGCGGGCAGGAUAUGUACUUGAGUACAUGAGGAUCACCCAUGUGCGGGUGUUUCACCCGACAGAAGGGCCUAUCGCGAC [JL-ss2-3.25 ViennaUCT mod] (puzzle: Same State 2)	145	136	664	–	–	–
GUGUUACAUGAGGAUCACCCAUGUUGUUGUAGAUAAGGAUAUAUGGGAACGAGAGAAAUAAUAGAAGGUAUUAGGC [JR_SS1_Sub060] (puzzle: Same State 1)	–	77.4	–	–	–	–
GUUACAUGAGGAUCACCCAUGUAUGUGUGGGAGUAAGUGUCUUAGGAUAUCUAGUAUUUAAUUGAAGAGAAGGAAGAUUGUUGU [JMF's solution 67] (Eterna round: R96, puzzle: Same State NG 3)	–	–	–	109	87.2	108
GUUACAUGAGGAUCACCCAUGUAUGUGUGGGAGUAAGUGUCUUAGGAUAUCUAGUGUUUAAUUUAAGAGAAGGAAGAUUGUUGU [JMF's solution 53] (Eterna round: R96, puzzle: Same State NG 3)	–	–	–	134	96.8	116
GUUACAUGAGGAUCACCCAUGUAUGUGUGGGAGUAAGUGUCUUAGGAUAUCUAUUAUUUUAAUUAAGAGAAGGAAGAUUGUUGU [JMF's solution 20] (Eterna round: R96, puzzle: Same State NG 3)	–	–	–	98.6	113	122
GUUACAUGAGGAUCACCCAUGUAUGUGUGGGAGUAAGUGUCUUAGGAUAUCUGAUAUUUAAUUUAAGAGAAGGAAGAUUGUUGU [JMF's solution 29] (Eterna round: R96, puzzle: Same State NG 3)	–	–	–	119	69.6	85.5
GUUACAUGAGGAUCACCCAUGUAUGUGUGGGAGUAAGUGUCUUAGGAUAUCUGUGAUUUAAUUUAAGAGAAGGAAGAUUGUUGU [JMF's solution 32] (Eterna round: R96, puzzle: Same State NG 3)	–	–	–	126	71.6	96.1
GUUACAUGAGGAUCACCCAUGUGUGUGUGGGAGUGAGUGGCUUAGGAUAUCUAUGAUUUUAGUUGAGAGAAGGAGGAUUGCUGU [SS-NG3-LRO08] (Eterna round: R96, puzzle: Same State NG 3)	–	–	–	439	158	347
GUUAGGAAUCUAGCAAACAUGAGGAUCACCCAUGUAAGUGGGAAGGAUAUGGUACAGAAACUGUACCAGAAGGUCUUAUUAAUU [Omei SS(NG) 3 AV1] (Eterna round: R96, puzzle: Same State NG 3)	–	–	–	128	246	306
UAAAAUAACACAGGAUAUGCAGACAACUCGUCGGCAGAAGGGUGAGACAUGAGGAUCACCCAUGUAAAAUAAGGGCGCCGCCCG [Diatera] (Eterna round: R96, puzzle: Same State NG 1)	–	–	–	995	219	777
UAAAUACAUGAGGAUCACCCAUGUCAAAAGACAUGAGGAUAUGUACAGACUUCGGUCUGUACAGAAGGCAUGAAUA [salish99_ss1_r3_096] (Eterna round: R96, puzzle: Same State 1)	–	–	–	–	417	–
UAAAUACAUGAGGAUCACCCAUGUCAAAAGACAUGAGGAUAUGUACAGACUUCGGUCUGUACAGAAGGCAUGAAUA [salish99_ss1_r3_096] (puzzle: Same State 1)	34.4	294	566	–	–	–
UAAGGACAUGAGGAUCACCCAUGUGCUUCAUAUGGAGAAUCUCAGGAUAUCCUGAGGAUCACCCAGGAGAAGGGAGAUCCGAGG (Eterna round: R96, puzzle: Same State NG 3)	–	–	–	288	191	225
UAAGGACAUGAGGAUCACCCAUGUGCUUCAUAUGGAGAAUCUCAGGAUAUGCUGAGGAUCACCCAGCAGAAGGGAGAUCCGAGG (Eterna round: R96, puzzle: Same State NG 3)	–	–	–	71.9	93	120
UAAUUAAAGCAAGGAUAUCACGUCGAUUAGACGUGAGAAGGUGCUCCUUACAUGAGGAUCACCCAUGUAUAACAUGAAUAAUUA [SSNG1/10-B2] (Eterna round: R96, puzzle: Same State NG 1)	–	–	–	169	522	792
UACUUCAUGUAAGGAUAUGCAGCCGUUUCGGCUGCAGAAGGUACUAUAAUACAUGAGGAUCACCCAUGUCUCUCGCAUUGCGAG [JL SSNG1 1.50] (Eterna round: R96, puzzle: Same State NG 1)	–	–	–	53.6	86.2	158
UAGAAACAUGAGGAUCACCCAUGUGUCAAAGACAUAGGAUAUCAUAACUGGCGCCAGUUAUGAGAAGGGUGGUAAA [Belezaqu] (puzzle: Same State 1)	33.8	52.6	170	–	–	–
UAGAGAGGAAGCGAGGAUAUCGUGUGAGGUACAUGAGGAUCACCCAUGUUUGAUGUUGAGAGAGGCGAGAAGGCGCAGGAGAUAA [JR_SS2_Sub085] (puzzle: Same State 2)	31.9	32.4	34.1	–	–	–
UAGAGAGGAAGCGAGGAUAUCGUGUUAGGUACAUGAGGAUCACCCAUGUUUUAAGUAGAGAUAGGCGAGAAGGCGCAGGAGAAGA [JR_SS2_Sub089] (puzzle: Same State 2)	38	20.1	28	–	–	–
UAGUGCGUUAGAGGAUAUUCUAAAAAAAAAAAAAAGACAUGAGGAUCACCCAUGUAUGUACAUGGGAAGAAGGCUGAUGUGCUA [Omei SS(NG)2 B] (Eterna round: R96, puzzle: Same State NG 2)	–	–	–	75.9	352	551
UAUAAACAUGAGGAUCACCCAUGUAAUAAUAUGGGAGGAUAUCAGAAUGUAUGUAUGUAAUGAGAAGGCCUAAUAU [Mat - Same State 1 - Mod of Eli - D70] (puzzle: Same State 1)	54.4	268	1270	–	–	–

Reference: the supplement of paper PMC9170038
